Source: patent publication US20180064827

Columns and labels:
Assay in all cases: cell_activity
ZFN 64983 (synthetic) = details: pair with 64971, Hepa1-6
ZFN 64982 (synthetic) = details: pair with 64971, Hepa1-6; finger linker variant 64972 gave 89.0
ZFN 60461 (synthetic) = details: pair with 64971, Hepa1-6
ZFN 25264 (synthetic) = details: pair with 25277, K562, 200 ng
ZFN 60308 (synthetic) = details: pair with 60309, K562
ZFN 69922 (synthetic) = details: pair with 69916, 0.1 ug mRNA, MK2
ZFN 69926 (synthetic) = details: pair with 69915, 0.1 ug mRNA, MK2
ZFN 69929 (synthetic) = details: pair with 69920, 0.1 ug mRNA, MK2
ZFN 69928 (synthetic) = details: pair with 69916, 0.1 ug mRNA, MK2
ZFN 69925 (synthetic) = details: pair with 69916, 0.1 ug mRNA, MK2
ZFN 64989 (synthetic) = details: pair with 65021, Hepa1-6
ZFN 60392 (synthetic) = details: pair with 65022, Hepa1-6
ZFN 64992 (synthetic) = details: pair with 65021, Hepa1-6
ZFN 60423 (synthetic) = details: pair with 64793, Hepa1-6
ZFN 64842 (synthetic) = details: pair with 64793, Hepa1-6
ZFN 64844 (synthetic) = details: pair with 64793, Hepa1-6
ZFN 60750 (synthetic) = details: pair with 67495, HepG2, 40 ug/mL
ZFN 67495 (synthetic) = details: pair with 60750, HepG2, 40 ug/mL
ZFN 60751 (synthetic) = details: pair with 64347, HepG2, 40 ug/mL
ZFN 67493 (synthetic) = details: pair with 60750, HepG2, 40 ug/mL
ZFN 65086 (synthetic) = details: pair with 65094, Hepa1-6
ZFN 58780 (synthetic) = details: pair with 65094, Hepa1-6
ZFN 65085 (synthetic) = details: pair with 65098, Hepa1-6
ZFN 64946 (synthetic) = details: pair with 64951, Hepa1-6
ZFN 64947 (synthetic) = details: pair with 64952, Hepa1-6
ZFN 64944 (synthetic) = details: pair with 64952, Hepa1-6
ZFN 60412 (synthetic) = details: pair with 64951, Hepa1-6
ZFN 60413 (synthetic) = details: pair with 64944, Hepa1-6
ZFN 64952 (synthetic) = details: pair with 64944, Hepa1-6
ZFN 64951 (synthetic) = details: pair with 64946, Hepa1-6
ZFN 60416 (synthetic) = details: pair with 64866, Hepa1-6
ZFN 64859 (synthetic) = details: pair with 64869, Hepa1-6
ZFN 64848 (synthetic) = details: pair with 64866, Hepa1-6
ZFN 60254 (synthetic) = details: pair with 60259, K562; N7a version 60256 gave 74.32
ZFN 60133 (synthetic) = details: pair with 60134, K562
ZFN 64866 (synthetic) = details: pair with 64859, Hepa1-6
ZFN 64869 (synthetic) = details: pair with 64859, Hepa1-6
ZFN 60417 (synthetic) = details: pair with 64859, Hepa1-6
ZFN 65094 (synthetic) = details: pair with 65086, Hepa1-6
ZFN 65095 (synthetic) = details: pair with 65086, Hepa1-6
ZFN 58781 (synthetic) = details: pair with 65086, Hepa1-6
ZFN 65098 (synthetic) = details: pair with 65086, Hepa1-6
ZFN 69912 (synthetic) = details: pair with 69909, 0.1 ug mRNA, MK2
ZFN 69913 (synthetic) = details: pair with 69909, 0.1 ug mRNA, MK2
ZFN 60045 (synthetic) = details: pair with 60043, K562
ZFN 69903 (synthetic) = details: pair with 69912, 0.1 ug mRNA, MK2
ZFN 69908 (synthetic) = details: pair with 69912, 0.1 ug mRNA, MK2
ZFN 69909 (synthetic) = details: pair with 69912, 0.1 ug mRNA, MK2
ZFN 67451 (synthetic) = details: pair with 60502, HepG2, 40 ug/mL
ZFN 64066 (synthetic) = details: pair with 60502, HepG2, 40 ug/mL
ZFN 60501 (synthetic) = details: pair with 67458, HepG2, 40 ug/mL
ZFN 60137 (synthetic) = details: pair with 60334, K562
ZFN 65022 (synthetic) = details: pair with 64989, Hepa1-6
ZFN 60393 (synthetic) = details: pair with 64989, Hepa1-6
ZFN 65021 (synthetic) = details: pair with 64989, Hepa1-6
ZFN 60309 (synthetic) = details: pair with 60308, K562
ZFN 60289 (synthetic) = details: pair with 60287, K562
ZFN 60334 (synthetic) = details: pair with 60137, K562
ZFN 64971 (synthetic) = details: pair with 64982, Hepa1-6
ZFN 64969 (synthetic) = details: pair with 64982, Hepa1-6
ZFN 60460 (synthetic) = details: pair with 64982, Hepa1-6
ZFN 69916 (synthetic) = details: pair with 69922, 0.1 ug mRNA, MK2
ZFN 69918 (synthetic) = details: pair with 69922, 0.1 ug mRNA, MK2
ZFN 69915 (synthetic) = details: pair with 69922, 0.1 ug mRNA, MK2
ZFN 69919 (synthetic) = details: pair with 69922, 0.1 ug mRNA, MK2
ZFN 69920 (synthetic) = details: pair with 69922, 0.1 ug mRNA, MK2
ZFN 64347 (synthetic) = details: pair with 60751, HepG2, 40 ug/mL
ZFN 60134 (synthetic) = details: pair with 60133, K562
ZFN 60043 (synthetic) = details: pair with 60045, K562
ZFN 25277 (synthetic) = details: pair with 25264, K562, 200 ng
ZFN 64793 (synthetic) = details: pair with 64842, Hepa1-6
ZFN 60422 (synthetic) = details: pair with 64842, Hepa1-6
ZFN 64802 (synthetic) = details: pair with 64842, Hepa1-6
ZFN 64791 (synthetic) = details: pair with 64842, Hepa1-6
ZFN 60259 (synthetic) = details: pair with 60254, K562

Sequence: GGGGTGGTGACTCACCGGCCACGTGGGC (double strand) [mouse PCSK9 site F right]
- activity (ZFN 64983 (synthetic)): 95.2 % indel
- activity (ZFN 64982 (synthetic)): 95.9 % indel
- activity (ZFN 60461 (synthetic)): 85.8 % indel

Sequence: GTCGATGGTCAGCACAGCCTTATGCACG (double strand) [SERPINA1 25264 site]
- activity (ZFN 25264 (synthetic)): 40.9 % indel

Sequence: TGCAGGCGGCGGGCAGTGCGCTCTGACT (double strand) [human PCSK9 60308 site]
- activity (ZFN 60308 (synthetic)): 71.8 % indel

Sequence: GGGGTGGTGACTTACCAGCCACGTGGGC (double strand) [M. mulatta PCSK9 exon 7 right]
- activity (ZFN 69922 (synthetic)): 81.4 % indel
- activity (ZFN 69926 (synthetic)): 37 % indel
- activity (ZFN 69929 (synthetic)): 43.3 % indel
- activity (ZFN 69928 (synthetic)): 69.2 % indel
- activity (ZFN 69925 (synthetic)): 77 % indel

Sequence: AGGATGGAGATTATGAAGAGCTGATGCT (double strand) [mouse PCSK9 site G left]
- activity (ZFN 64989 (synthetic)): 83.3 % indel
- activity (ZFN 60392 (synthetic)): 69.2 % indel
- activity (ZFN 64992 (synthetic)): 79.8 % indel

Sequence: GGCACGCTGTTGAAGTCGGTGATGGTGA (double strand) [mouse PCSK9 site A right]
- activity (ZFN 60423 (synthetic)): 35.8 % indel
- activity (ZFN 64842 (synthetic)): 44.9 % indel
- activity (ZFN 64844 (synthetic)): 42.9 % indel

Sequence: CTTACTGGAAGGCACTTGGCATCTCCCC (double strand) [human TTR 60750 site]
- activity (ZFN 60750 (synthetic)): 61.8 % indel

Sequence: TGCATGCTCATGGAATGGGGAGATGCCA (double strand) [human TTR exon 3 right]
- activity (ZFN 67495 (synthetic)): 61.8 % indel
- activity (ZFN 60751 (synthetic)): 63.5 % indel
- activity (ZFN 67493 (synthetic)): 59.2 % indel

Sequence: CTGGAGGCTGCCAGGAACCTACATTGTG (double strand) [mouse PCSK9 site J left]
- activity (ZFN 65086 (synthetic)): 77.8 % indel
- activity (ZFN 58780 (synthetic)): 69.6 % indel
- activity (ZFN 65085 (synthetic)): 73.5 % indel

Sequence: GCTAAGTGCATGGCTGTCTGGTTCTGTA (double strand) [mouse PCSK9 site E left]
- activity (ZFN 64946 (synthetic)): 51.3 % indel
- activity (ZFN 64947 (synthetic)): 42 % indel
- activity (ZFN 64944 (synthetic)): 49.1 % indel
- activity (ZFN 60412 (synthetic)): 28.6 % indel

Sequence: CACATGGGGCAACTTCAGGGCCTACAGA (double strand) [mouse PCSK9 site E right]
- activity (ZFN 60413 (synthetic)): 41.4 % indel
- activity (ZFN 64952 (synthetic)): 49.1 % indel
- activity (ZFN 64951 (synthetic)): 51.3 % indel

Sequence: CAGAGCATCCCATGGAACCTGGAGCGAA (double strand) [mouse PCSK9 site B left]
- activity (ZFN 60416 (synthetic)): 35.7 % indel
- activity (ZFN 64859 (synthetic)): 82.4 % indel
- activity (ZFN 64848 (synthetic)): 73.6 % indel

Sequence: CGCTGCCGGCAACTTCCGGGACGATGCC (double strand) [human PCSK9 60254 site]
- activity (ZFN 60254 (synthetic)): 75.7 % indel

Sequence: CCGCCCGGTACCGTGGAGGGGTAATCCG (double strand) [human PCSK9 60133 site]
- activity (ZFN 60133 (synthetic)): 72.6 % indel

Sequence: CTGGTGCCATGCTGGGATAATTCGCTCC (double strand) [mouse PCSK9 site B right]
- activity (ZFN 64866 (synthetic)): 79 % indel
- activity (ZFN 64869 (synthetic)): 82.4 % indel
- activity (ZFN 60417 (synthetic)): 53 % indel

Sequence: GTGGTGCTGATGGAGGAGACCCAGAGGC (double strand) [mouse PCSK9 site J right]
- activity (ZFN 65094 (synthetic)): 77.8 % indel
- activity (ZFN 65095 (synthetic)): 76.7 % indel
- activity (ZFN 58781 (synthetic)): 62.3 % indel
- activity (ZFN 65098 (synthetic)): 77.2 % indel

Sequence: GTGGTGCTGAAGGAGGAGACCCACCGCT (double strand) [M. mulatta PCSK9 exon 2 right]
- activity (ZFN 69912 (synthetic)): 58.7 % indel
- activity (ZFN 69913 (synthetic)): 53.4 % indel

Sequence: TACGTGGTGGTGCTGAAGGAGGAGACCC (double strand) [human PCSK9 60045 site]
- activity (ZFN 60045 (synthetic)): 65.4 % indel

Sequence: GTGGAGGCTGCCCGGCACCTACGTGGTG (double strand) [M. mulatta PCSK9 exon 2 left]
- activity (ZFN 69903 (synthetic)): 33.7 % indel
- activity (ZFN 69908 (synthetic)): 42.5 % indel
- activity (ZFN 69909 (synthetic)): 58.7 % indel

Sequence: GAGCAGACGATGAGAAGCCATCCTGCCA (double strand) [human TTR 60501 site]
- activity (ZFN 67451 (synthetic)): 36.6 % indel
- activity (ZFN 64066 (synthetic)): 37.3 % indel
- activity (ZFN 60501 (synthetic)): 47.6 % indel

Sequence: AGATGGGGGTCTTACCGGGGGGCTGGTA (double strand) [human PCSK9 60137 site]
- activity (ZFN 60137 (synthetic)): 67.9 % indel

Sequence: TCCTCCTGGGACGGGAGGGCGAGCATCA (double strand) [mouse PCSK9 site G right]
- activity (ZFN 65022 (synthetic)): 76.3 % indel
- activity (ZFN 60393 (synthetic)): 60.9 % indel
- activity (ZFN 65021 (synthetic)): 83.3 % indel

Sequence: TATCCCCGGCGGGCAGCCTGGGCCTGCA (double strand) [human PCSK9 60309 site]
- activity (ZFN 60309 (synthetic)): 71.8 % indel

Sequence: AGAGAAGTGGATCAGTCTCTGCCTCAAC (double strand) [human PCSK9 60289 site]
- activity (ZFN 60289 (synthetic)): 73.1 % indel

Sequence: GGTACCGGGCGGATGAATACCAGCCCCC (double strand) [human PCSK9 60334 site]
- activity (ZFN 60334 (synthetic)): 67.9 % indel

Sequence: GTGGGACCTCACAGGCTGCTGCCCACGT (double strand) [mouse PCSK9 site F left]
- activity (ZFN 64971 (synthetic)): 95.9 % indel
- activity (ZFN 64969 (synthetic)): 86.1 % indel
- activity (ZFN 60460 (synthetic)): 53.8 % indel

Sequence: GTGGGACATCGCAGGCTGCTGCCCACGT (double strand) [M. mulatta PCSK9 exon 7 left]
- activity (ZFN 69916 (synthetic)): 81.4 % indel
- activity (ZFN 69918 (synthetic)): 71.2 % indel
- activity (ZFN 69915 (synthetic)): 78 % indel
- activity (ZFN 69919 (synthetic)): 76.1 % indel
- activity (ZFN 69920 (synthetic)): 72.1 % indel

Sequence: TCTTACTGGAAGGCACTTGGCATCTCCC (double strand) [human TTR 64347 site]
- activity (ZFN 64347 (synthetic)): 63.5 % indel

Sequence: TTACCGGGGGGCTGGTATTCATCCGCCC (double strand) [human PCSK9 60134 site]
- activity (ZFN 60134 (synthetic)): 72.6 % indel

Sequence: AGGATCCGTGGAGGTTGCCTGGCACCTA (double strand) [human PCSK9 60043 site]
- activity (ZFN 60043 (synthetic)): 65.4 % indel

Sequence: GAAAGGGACTGAAGCTGCTGGGGCCATG (double strand) [SERPINA1 25277 site]
- activity (ZFN 25277 (synthetic)): 40.9 % indel

Sequence: TCGGGAGATTGAGGGCAGGGTCACCATC (double strand) [mouse PCSK9 site A left]
- activity (ZFN 64793 (synthetic)): 44.9 % indel
- activity (ZFN 60422 (synthetic)): 35 % indel
- activity (ZFN 64802 (synthetic)): 43 % indel
- activity (ZFN 64791 (synthetic)): 41.8 % indel

Sequence: GAGGCTGGGGAGTAGAGGCAGGCATCGT (double strand) [human PCSK9 60259 site]
- activity (ZFN 60259 (synthetic)): 75.7 % indel
